Measured values as given in PMC11148069 (2024).

T1: recombinant Xenopus Nup93 target (BLI) (Xenopus, UniProt Q7ZX96 1-820)
T1 chain: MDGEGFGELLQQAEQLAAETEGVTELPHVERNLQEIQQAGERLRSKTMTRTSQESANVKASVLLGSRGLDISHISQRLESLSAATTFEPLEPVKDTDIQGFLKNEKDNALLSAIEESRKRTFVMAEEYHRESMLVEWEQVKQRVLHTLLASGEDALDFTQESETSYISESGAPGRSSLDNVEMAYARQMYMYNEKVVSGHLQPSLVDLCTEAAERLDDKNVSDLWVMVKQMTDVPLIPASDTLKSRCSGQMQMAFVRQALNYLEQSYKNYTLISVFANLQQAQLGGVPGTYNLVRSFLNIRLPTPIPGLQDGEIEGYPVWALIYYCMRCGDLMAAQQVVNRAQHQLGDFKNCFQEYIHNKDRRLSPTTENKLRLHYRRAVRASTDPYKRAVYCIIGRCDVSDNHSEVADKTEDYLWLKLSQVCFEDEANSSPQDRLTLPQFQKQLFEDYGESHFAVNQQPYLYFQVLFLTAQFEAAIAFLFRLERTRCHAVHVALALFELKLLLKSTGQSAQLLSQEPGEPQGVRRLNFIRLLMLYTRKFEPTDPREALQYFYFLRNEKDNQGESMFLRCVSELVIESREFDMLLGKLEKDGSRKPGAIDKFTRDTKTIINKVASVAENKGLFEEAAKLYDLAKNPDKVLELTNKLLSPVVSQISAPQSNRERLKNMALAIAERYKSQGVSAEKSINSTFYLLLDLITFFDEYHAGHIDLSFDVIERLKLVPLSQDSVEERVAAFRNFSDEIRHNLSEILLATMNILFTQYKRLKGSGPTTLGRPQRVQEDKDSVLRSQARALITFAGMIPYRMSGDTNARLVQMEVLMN

T2: recombinant Xenopus Nup98 target (BLI) (Xenopus)
T2 chain: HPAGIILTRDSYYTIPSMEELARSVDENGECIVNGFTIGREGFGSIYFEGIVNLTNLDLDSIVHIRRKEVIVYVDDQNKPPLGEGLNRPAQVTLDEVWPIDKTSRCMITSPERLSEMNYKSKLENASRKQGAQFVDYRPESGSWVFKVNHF

T3: recombinant human Nup98 target (BLI) (human, UniProt P52948 1-880)
T3 chain: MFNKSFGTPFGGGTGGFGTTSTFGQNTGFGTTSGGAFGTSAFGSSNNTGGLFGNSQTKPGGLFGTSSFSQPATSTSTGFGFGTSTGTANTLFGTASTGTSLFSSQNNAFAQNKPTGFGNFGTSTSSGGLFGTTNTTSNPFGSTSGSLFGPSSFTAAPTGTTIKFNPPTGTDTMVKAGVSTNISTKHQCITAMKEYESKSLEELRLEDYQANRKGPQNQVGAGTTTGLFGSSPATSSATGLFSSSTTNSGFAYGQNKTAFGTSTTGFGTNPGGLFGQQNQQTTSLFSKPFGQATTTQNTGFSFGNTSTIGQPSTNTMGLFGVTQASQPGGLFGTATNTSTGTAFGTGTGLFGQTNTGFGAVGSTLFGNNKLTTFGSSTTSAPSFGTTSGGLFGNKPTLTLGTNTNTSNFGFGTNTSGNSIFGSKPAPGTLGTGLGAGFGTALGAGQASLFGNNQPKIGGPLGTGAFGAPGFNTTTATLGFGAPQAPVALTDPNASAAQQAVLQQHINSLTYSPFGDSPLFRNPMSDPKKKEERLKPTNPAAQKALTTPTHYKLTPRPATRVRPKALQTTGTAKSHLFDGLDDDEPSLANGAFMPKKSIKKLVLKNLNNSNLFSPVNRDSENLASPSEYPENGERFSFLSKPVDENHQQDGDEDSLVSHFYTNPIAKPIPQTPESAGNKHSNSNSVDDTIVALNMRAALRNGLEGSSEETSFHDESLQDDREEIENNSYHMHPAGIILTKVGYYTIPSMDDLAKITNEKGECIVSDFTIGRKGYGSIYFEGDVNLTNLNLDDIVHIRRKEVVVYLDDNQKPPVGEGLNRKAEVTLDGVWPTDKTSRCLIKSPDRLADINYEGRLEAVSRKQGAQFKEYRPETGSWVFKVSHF

T4: human Nup35, endogenous (human (endogenous in HeLa), UniProt Q8NFH5 1-326)
T4 chain: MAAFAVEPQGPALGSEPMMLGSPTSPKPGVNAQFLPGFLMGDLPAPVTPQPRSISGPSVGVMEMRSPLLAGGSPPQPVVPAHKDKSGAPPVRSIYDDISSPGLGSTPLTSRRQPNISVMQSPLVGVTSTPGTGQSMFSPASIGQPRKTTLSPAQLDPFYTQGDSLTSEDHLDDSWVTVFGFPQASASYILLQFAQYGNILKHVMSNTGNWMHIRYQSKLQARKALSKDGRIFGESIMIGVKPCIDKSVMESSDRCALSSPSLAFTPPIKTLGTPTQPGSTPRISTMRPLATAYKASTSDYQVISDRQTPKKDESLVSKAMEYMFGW

T5: Xenopus Nup35, endogenous (Xenopus (endogenous in egg extract))
T5 chain: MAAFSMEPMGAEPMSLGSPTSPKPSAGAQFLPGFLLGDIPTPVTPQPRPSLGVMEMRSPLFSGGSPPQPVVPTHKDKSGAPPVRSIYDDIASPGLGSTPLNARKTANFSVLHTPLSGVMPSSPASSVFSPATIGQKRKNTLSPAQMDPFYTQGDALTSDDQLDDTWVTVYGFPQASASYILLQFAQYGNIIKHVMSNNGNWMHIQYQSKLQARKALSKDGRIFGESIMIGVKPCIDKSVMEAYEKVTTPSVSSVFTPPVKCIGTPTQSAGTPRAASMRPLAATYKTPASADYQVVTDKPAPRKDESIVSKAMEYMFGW

B1: recombinant human Nup93 target (BLI) (natural protein)
chain: MDTEGFGELLQQAEQLAAETEGISELPHVERNLQEIQQAGERLRSRTLTRTSQETADVKASVLLGSRGLDISHISQRLESLSAATTFEPLEPVKDTDIQGFLKNEKDNALLSAIEESRKRTFGMAEEYHRESMLVEWEQVKQRILHTLLASGEDALDFTQESEPSYISDVGPPGRSSLDNIEMAYARQIYIYNEKIVNGHLQPNLVDLCASVAELDDKSISDMWTMVKQMTDVLLTPATDALKNRSSVEVRMEFVRQALAYLEQSYKNYTLVTVFGNLHQAQLGGVPGTYQLVRSFLNIKLPAPLPGLQDGEVEGHPVWALIYYCMRCGDLLAASQVVNRAQHQLGEFKTWFQEYMNSKDRRLSPATENKLRLHYRRALRNNTDPYKRAVYCIIGRCDVTDNQSEVADKTEDYLWLKLNQVCFDDDGTSSPQDRLTLSQFQKQLLEDYGESHFTVNQQPFLYFQVLFLTAQFEAAVAFLFRMERLRCHAVHVALVLFELKLLLKSSGQSAQLLSHEPGDPPCLRRLNFVRLLMLYTRKFESTDPREALQYFYFLRDEKDSQGENMFLRCVSELVIESREFDMILGKLENDGSRKPGVIDKFTSDTKPIINKVASVAENKGLFEEAAKLYDLAKNADKVLELMNKLLSPVVPQISAPQSNKERLKNMALSIAERYRAQGISANKFVDSTFYLLLDLITFFDEYHSGHIDRAFDIIERLKLVPLNQESVEERVAAFRNFSDEIRHNLSEVLLATMNILFTQFKRLKGTSPSSSSRPQRVIEDRDSQLRSQARTLITFAGMIPYRTSGDTNARLVQMEVLMN

Assays:
Experiment in all cases: BLI
[1] = target: B1
[2] = target: T1, recombinant Xenopus Nup93 target (BLI)
[3] = target: T2, recombinant Xenopus Nup98 target (BLI)
[4] = target: T3, recombinant human Nup98 target (BLI)
[5] = target: T4, human Nup35, endogenous
[6] = target: T5, Xenopus Nup35, endogenous
[7] = target: xhNup93-Nb3t

Kd [3] | Kd [4] | Binder | further results
– | – | xhNup93-Nb4i, biotinylated for BLI (VHH, Biotin-[PEG]3-maleimide on two ectopic cysteines) VHH: QVQLVESGGGVVQTGDSLMLSCTVSGHTIDNWAMGWFRQTPRKQREFVAAIDKRGTGAIYGNSVKGRFTVSRDNAKNMVYLRMNSLKPEDTAVYFCAVDQLNAGLGDVSYDYDYWGQGTQVTVSS | Kd [1]: 3 nM; Kd [2]: < 0.01 nM
< 0.01 nM | 0.02 nM | xhNup98-Nb2i, biotinylated for BLI (VHH, Biotin-[PEG]3-maleimide on two ectopic cysteines) VHH: QVQLVESGGGLAKPGGSLRLSCVATGTFRSMEDVGWYRQAPGKDRELVAEITTLGKVTYADSVKGRFTISRDDAKNAVYLQMSDLKSEDTAVYYCNIEADQTKGIGYVVYPYWGQGTRVTVSS | –
– | – | xhNup35-Nb1t (VHH) VHH: QVQLVESGGGLVQAGGSLRLSCVGTGNISSAYTMAWYRQAAGKEREVVAGILNGGSTHYADSVKGRFTISRDNAKNTVYLQMNSLQPEDTGVYCCHVVIESTRFVYDHYWGQGTRVTVSS | Kd [5]: 0.8 nM; Kd [6]: 0.5 nM
1.7 nM | > 100 nM | xNup98-Nb1t (as added in the binding assay of Fig. 11C) (VHH) VHH: QVQLVESGGGPVEAGGSLRLSCAASGRSFSNSVMAWFRQAPGKEREFLSVLNWSSGRTSIADSVKGRFTMSRDPAKITVYLQMNGLKPEDTAVYYCAASNRGSLYTLDNQNRYEDWGQGTQVTVSS | –
– | – | B1 | Kd [7]: 1 nM
– | – | xNup93-Nb2t (VHH) VHH: DVQLVESGGGLVQPGGSLRLSCVASGFTFSRVGMGWVRQAPGKGLEWVSDINASGGTGYADSVKGRFAISRDNAKNTLYLQMNRLKPEDTAVYYCAKMMDTAMIEAGIIKPAGQGTQVTVSS | Kd [2]: 4 nM
< 0.01 nM | < 0.01 nM | xhNup98-Nb3i (VHH) VHH: QVQLVESGGGLVQAGGSLRLSCAASGRTFSTYAMGWFRQAPGKEREFVSACSWSGGITRYADSVKGRFTISRDNAKNTVYLQMNSLKPEDTAVYYCASAASSAAYSGAYYYTSYYDYWGQGTQVTVSS | –
